No end group written: not given here.
Tests used:
[1] = target: T1, biotinylated cyclic ECL2 peptide of C5aR1 (human, also: biotinylated, position not given here, cyclic, way of cyclisation not given here); experiment: BLI, peptide on streptavidin sensor
T1 peptide: RVVREEYFPPKVLC
From the text: The epitope mapping was undertaken, using biolayer interferometry, on a series of exemplary anti-C5aR1 antibodies generated as described in Example 1. Briefly, for each antibody, biotinylated peptides representing ECL2, the N-terminus with tyrosine sulfation, and the N-terminus without tyrosine sulfation, were immobilized in a streptavidin biosensor. Subsequently, the biosensor was exposed to […] of antibody to detect antibody binding to the immobilized peptide. The results of the epitope mapping study are shown in Table 4 (“+” indicates binding to the listed peptide; “−” indicates lack of binding to the listed peptide).

[2] = target: T2, human C5aR1 (complement component 5a receptor 1) (human, UniProt P21730 1-350, sulfated tyrosines at positions 11 and 14); experiment: flow cytometry on human neutrophils, titration 10^-7.5 to 10^-12 M
T2 construct: on Expi293 cells, C5aR1-U937 cells or human neutrophils in flow cytometry; also called CD88; C5a anaphylatoxin chemotactic receptor 1
T2 chain: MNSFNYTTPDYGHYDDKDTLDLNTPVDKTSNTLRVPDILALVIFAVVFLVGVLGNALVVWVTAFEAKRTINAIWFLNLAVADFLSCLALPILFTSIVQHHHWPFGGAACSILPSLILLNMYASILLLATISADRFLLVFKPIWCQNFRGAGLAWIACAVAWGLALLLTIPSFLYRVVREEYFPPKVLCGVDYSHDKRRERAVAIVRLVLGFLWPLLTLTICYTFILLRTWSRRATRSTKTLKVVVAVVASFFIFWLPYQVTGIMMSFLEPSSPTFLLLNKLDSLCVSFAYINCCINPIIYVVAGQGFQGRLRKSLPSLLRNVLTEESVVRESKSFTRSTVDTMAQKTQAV
Description: Exemplary anti-C5aR1 antibodies generated as described in Example 1 were tested for binding to human neutrophils. Briefly, cryopreserved human neutrophils were obtained from Asarte Biologics.

B1: antibody 332 (antibody, V domains shown)
VH: QVQLQQSDAELVKPGASVKISCKASGYTFTDHSIHWVKQRPEQGLEWIGYISPGNGDIKYDEKFKGKATLTADTSSSTAYMQLNSLTSEDSAVYFCKGPLLLRWRYFYPVDYWGQGTTVTVSS
VL: DIVMTQSQKFMSSAVGDRVTITCKASQNVGAAVAWYQQKPGQSPKLLLYSASIRYTGVPDRFTGSGSGTDFTLTISNIQSEDLAHFFCQQYNSFPLTFGGGTKLEIK
- binding result [1]: no binding (tested: 10 gg/mL (so in the source))
- binding result [2]: binds

B2: antibody 335 (antibody, V domains shown)
VH: QVQLQQSDAALVKPGASVKISCKASGYTFTDHAIHWVKQRPEQGLEWIGYISPGNGDIKYNEKFKGKATLTADKSSSTAYMQLNSLTSEDSAVYFCKGPLLVRWRYYITMDYWGQGTTVTVSS
VL: DIVMTQSQKFMSTTVGDRVSITCKASQNVGAAVVWYQQKPGQSPKLLIYSASYRYTGVPDRFTGSGSGTDFTLTISNMQSEDVADYFCQQYNSFPLTFGGGTKLEIK
- binding result [1]: no binding (tested: 10 gg/mL (so in the source))
- binding result [2]: binds
